Substitutions are numbered along the chain they refer to. Names may count otherwise. “And” between values parts separate entries of the source, which are not always exact repeats. Equal entries are not always repeated. “Also recorded” adds a separate entry of the source.
T1: E. coli CFT073 PapG-II lectin domain PapGLD variant N96S G104A, SEQ ID NO: 16 (Escherichia coli, UniProt A0A0H2VAQ6, G124A/N116S)
T1 sequence (A0A0H2VAQ6 with tags, fused parts or gaps N116S/G124A): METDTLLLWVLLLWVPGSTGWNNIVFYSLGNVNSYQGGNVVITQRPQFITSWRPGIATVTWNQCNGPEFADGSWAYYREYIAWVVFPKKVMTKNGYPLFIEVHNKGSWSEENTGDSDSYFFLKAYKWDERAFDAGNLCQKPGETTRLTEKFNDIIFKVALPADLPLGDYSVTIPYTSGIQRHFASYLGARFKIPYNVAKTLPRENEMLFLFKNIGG

B1: PapG^LD N96S R170A: PapG lectin domain N96S with R170A ligand binding site mutation; SEQ ID NO: 23 (protein)
chain: T1 sequence (A0A0H2VAQ6 with tags, fused parts or gaps N116S/G124A) with A124G, R190A
B2: PapG^LD N96S W107A: PapG lectin domain N96S with W107A ligand binding site mutation; SEQ ID NO: 22 (protein)
chain: T1 sequence (A0A0H2VAQ6 with tags, fused parts or gaps N116S/G124A) with A124G, W127A
B3: PapG^LD N96S K172A: PapG lectin domain N96S with K172A ligand binding site mutation; SEQ ID NO: 24 (protein)
chain: T1 sequence (A0A0H2VAQ6 with tags, fused parts or gaps N116S/G124A) with A124G, K192A

Columns and labels:
[1] = tested on: E. coli strain CFT073 agglutination of human red blood cells; experiment: PapG hemagglutination (HA) assay; type: cell-based; details: pre-incubation with E. coli CFT073 WT strain, human RBC
Experimental: 16. PapG Hemagglutination (HA) Assay
(§1) A PapG HA assay was developed based on procedures described previously. WT E. coli strain CFT073 bacteria were streaked out from a frozen glycerol stock for single colonies on a tryptic soy blood agar plate. To grow bacteria for use in the HA assay, bacteria were cultured overnight in Luria Bertani liquid media at 37° C. and shaking at 230 rpm. The next morning, bacteria were washed once with 1×PBS and normalized to an OD540 of 1.0 in PBS. 30 μL of bacteria were then placed in a V-bottom 96-well plate (Corning, 3894) and serially diluted across the plate. […] After this incubation, 60 μL of a 1.75% red blood cell (Human Red Blood Cells, Washed, Rockland Immunochemicals R407-0050) solution (diluted from 10% stock using 1×PBS) was added to all the wells in the plate. The plate was incubated for 2 hours at 4° C. and then imaged using a light box and camera or ImageQuant System. To collect quantitative data, assay plates were analyzed using a Clariostar instrument. Absorbance was measured at a wavelength of 540 nm, which was the maximum absorbance observed using an RBC only control well, and a read diameter of 4 mm within each well. Absorbance was normalized using blank controls (1×PBS only).
7. Development of a Hemagglutination (HA) Assay as a Functional Assay to Evaluate Sera from PapG Immunized Animals. […]

[2] = target: T1, E. coli CFT073 PapG-II lectin domain PapGLD variant N96S G104A, SEQ ID NO: 16; experiment: SYPRO orange thermal shift with GbO3; type: binding; details: shift in melting temperature in the presence of GbO3 vs apo; 3 replicates; PBS pH 7.4, 4% DMSO
Experimental: (§2) PapG proteins were added to assay buffer (consisting of 4% DMSO, 1:1000 dilution of SYPRO orange (Invitrogen S6650) in PBS pH 7.4) at a final concentration of […]. Melt curves were analyzed in a QuantStudio 6 Real-time PCR system (ThermoFisher) using a dissociation protocol from 25° C. to 99° C., at 0.05° C./second. ROX was specified as the reporter.
(§3) The thermal stability of PapG WT and mutant proteins were determined using a SYPRO orange thermal shift-based differential scanning fluorimetry assay, wherein Tm designates the temperature at which 50% of the protein is unfolded. Non-covalent ligands often stabilize protein targets upon specific binding, resulting in an increase in protein melting temperature. Tm were therefore determined in the presence and absence of GbO3 for PapG, and the difference in Tm (ΔTm) of protein in the presence of ligand relative to the apo form was calculated.

[3] = tested on: E. coli strain CFT073 (PapG-dependent agglutination of human red blood cells); experiment: PapG hemagglutination (HA) assay; type: cell-based, Escherichia coli CFT073; human red blood cells; details: pre-incubation of E. coli CFT073 WT strain with GbO3, then human RBCs
Experimental: as §1
PapG mediates the ability of E. coli to agglutinate human red blood cells (RBC).

[4] = PapG Luminex ligand binding assay with globoside GbO4; details: result in words
Experimental: 9. PapG Ligand Binding Assay with Globoside GbO4
To determine the ability of PapGLD mutants to bind the porcine derived globotetraosyl ceramide ligand GalNAc-Gal-Gal-Glc-ceramide (GbO4), a Luminex ligand binding assay was developed. Surfactant Protein-A (SP-A) was coupled to the surface of MagPlex beads by EDC/NHS, to capture the lipid tail of the globotetraosyl ceramide. The Globotetraosyl ceramide/SP-A beads were incubated with an eight-point threefold titration of PapG in a 96 well flat bottom white plate with final volume of 100 microliters of 50 mM HEPES PH 7.4, 10 mM NaCl, 0.0005% Tween 20 shaking at 300 rpm, 4° C. overnight. After 20-24 hours the ligand binding plates were read on a FlexMap 3D plate reader for measurement of well-bead region specific MFI. Ligand binding equilibrium dissociation constants (Kd) were calculated assuming one site specific binding and interpolated using non-linear curve fitting (GraphPad Prism) as the ligand concentration needed to achieve half-maximal binding. The Luminex derived apparent Kd values are based on approximately fifty bead counts per assay sample.
(§4) Binding of PapG proteins to GbO2 or GbO4 ligands was evaluated using a Luminex platform wherein ligands were coupled to MagPlex beads via surfactant protein A (for […]) or directly using […] conjugation (for […]). This assay was used to rank order binding affinities of the mutants, reported as Kd values interpolated from protein antigen titration curves (Table 7).

[5] = Thermal shift (SYPRO orange) melting temperature, apo form; type: physicochemical; details: apo state, PBS pH 7.4
Experimental: as §2, §3

[6] = Thermal shift in the presence of GbO3; type: binding; details: in the presence of GbO3 relative to the apo form
Experimental: as §2
The thermal stability of PapG WT and mutant proteins were determined using a SYPRO orange thermal shift-based differential scanning fluorimetry assay, wherein Tm designates the temperature at which 50% of the protein is unfolded. Non-covalent ligands often stabilize protein targets upon specific binding, resulting in an increase in protein melting temperature.

[7] = PapG Luminex ligand binding assay with globoside compound GbO2Mpo; details: result in words
Experimental: 10. PapG Ligand Binding Assay with Globoside Compound GbO2Mpo
To determine Luminex ligand binding affinities of PapG mutants for the synthetic globoside ligand Gal-Glc-phenoxy-octyl-amine (GbO2Mpo), a Luminex ligand binding assay was developed based on the direct coupling of the amine reactive globoside ligand to the EDC/NHS activated carboxylic surface of MagPlex beads. Synthesis of GbO2Mpo ligand with an octyl amine linker (for coupling to beads) was performed via methods described previously. The GbO2Mpo beads were incubated with an 8-point, threefold titration of PapG in a 96-well flat bottom white plate with final volume of 100 μl of 50 mM HEPES pH 7.4, 10 mM NaCl, 0.0005% Tween 20 shaking at 300 rpm, 4° C. overnight. After 20-24 hours the ligand binding plates were read on a FlexMap 3D plate reader for measurement of well-bead region specific MFI.
as §4

Row | Molecule | inhibition of hemagglutination [1] | ΔTm (Average) [2] | inhibition of hemagglutination (in words) [3] | binding to GbO4 ligand [4] | Tm (Ave.) [5] | ΔTm (Average) [6] | binding to GbO2 ligand [7]
1 | Globotriaosylceramide [GbO3] [listing 1 of 2 here] | efficiently blocks agglutination of RBCs; also recorded: concentration-dependent inhibition of hemagglutination | – | – | – | – | – | –
2 | Globotriaosylceramide [GbO3] [listing 2 of 2 here] | – | < 0.5 °C and 0.22 °C | efficiently blocks agglutination of RBCs; also recorded: concentration-dependent inhibition of hemagglutination | – | – | – | –
3 | B1 | – | – | – | prevent binding to GbO4; also recorded: lower the binding affinity; also recorded: eliminate ligand binding | 55.83 °C | 0.33 °C | –
4 | B2 | – | – | – | prevent binding to GbO4; also recorded: lower the binding affinity; also recorded: eliminate ligand binding | 62.64 °C | 0.22 °C | –
5 | B3 | – | – | – | prevent binding to GbO4; also recorded: reduced binding; also recorded: lower the binding affinity; also recorded: eliminate ligand binding | 56.38 °C | 0.42 °C | reduced binding

Reference: patent publication US20260061042A1, “POLYNUCLEOTIDE COMPOSITIONS AND USES THEREOF” (Pfizer Inc., priority 2024, published 2026)
